# Measured values published in the supplement of paper PMC11865577.
# Test system: TO-N3 (biotin conjugate)
# Experiment: pull-down binding Z-score (relative to library population); higher = stronger binding
# Details: RNA library: Library-2
# Outline: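 Cy5- or Cy3-end-labelled RNA library (1 μg) was heat-folded in phosphate/NaCl/KCl buffer and incubated 60 min at 25 °C with streptavidin beads carrying 100 pmol biotin-conjugated small molecule. After three washes, bound RNA was eluted in hot SDS and hybridised 20 h at 55.5 °C to a DNA barcode microarray. Binding was scored by subtracting a beads-only control, averaging barcoded replicate probes after dropping highest and lowest, and converting to a Z-score against library mean and standard deviation.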
row,Sequence,pull-down binding Z-score
1,GGUUCACUAUAUGUUAAACCAGGUGGAACC,0.506
2,GGUUCGUGUCUUUAGCUAUAGAUGCUUACC,0.913
3,GGUUGGGAAAUUGUUAAAUUUAUCUCAACC,-0.616
4,GGUUGGGAGAAGAGCAACAGCC [IAV_invivo_PB2_1_Motif_16+IAV_invivo_PB2_1_Motif_16],0.776
5,GGUUGUAUGGUACAAGUAACUUGUGGUACAACU,-0.61
6,GGUUUAACUUCUAUUAAAUGGGCAGAUAACAACUGUUAUCUUGCCACUGCAUUGUUAACACUCCAACAAAUAGAGUUGAAGUUUAAUCC,-0.793
7,GGUUUAGCUGCUGUUAAUAGUGUCCCUUGGGAUACUAUAGCUAAUUAUGCUAAGCC,0.141
8,GGUUUAUACCUUCCCAGGUAACAAACC,-0.928
9,GGUUUGUUACAGACACACC [SHAPE_invivo_SARS-CoV-2_Motif_243],-0.748
10,GGUUUGUUGCC [IAV_invivo_PB1_2_Motif_26+IAV_invivo_PB1_2_Motif_26],-0.146
11,GGUUUUAUAGCUGGCUUGAUUGCCAUAGUAAUGGUGACAAUUAUGCUUUGCUGUAUGACC,-0.717
12,GUAAAUUUACUUAC [DMSMaPseq_invitro_SARS-CoV-2_Motif_170],0.563
13,GUAAGAGAAUUCCUUAC,-0.531
14,GUAAUGAUCCAUUUUUGGGUGUUUAUUAC [DMSMaPseq_invitro_SARS-CoV-2_Motif_387],-0.308
15,GUACAUACAGCUAAUAAAUGGGAUCUCAUUAUUAGUGAUAUGUAC,-0.621
16,GUACAUGGGCACACUUUCUUAUGAACAAUUUAAGAAAGGUGUUCAGAUAC [DMSMaPseq_invitro_SARS-CoV-2_Motif_106],-0.353
17,GUACAUGGGCACACUUUCUUAUGAACAAUUUAAGAAAGGUGUUCAGAUACCUUGUAC [SHAPE_invitro_SARS-CoV-2_Motif_110],-1.06
18,GUACCAAAGGUGC [IAV_invivo_PB1_2_Motif_35+IAV_invivo_PB1_2_Motif_35],-0.215
19,GUACCUCAAGCUGAUGUAGAAUGGAAGUUCUAUGAUGCACAGCCUUGUAGUGAC [SHAPE_invitro_SARS-CoV-2_Motif_348],-0.178
20,GUACGAUCGAGUGUAC [DMSMaPseq_invitro_SARS-CoV-2_Motif_538],0.105
21,GUACUUAAUGAGAAGUGC [SHAPE_invivo_SARS-CoV-2_Motif_56],-0.461
22,GUACUUGGUAGUUUAGCUGCCACAGUAC,-0.688
23,GUAGACAAUUCUAGUCUUAC [SHAPE_invitro_SARS-CoV-2_Motif_131],0.441

row,Sequence,pull-down binding Z-score
1,GUAGAGGAGGCAAAGACAGUGCUUAAAAAGUGUAAAAGUGCCUUUUAC,-0.193
2,GUAUCUGAAUUAC,-0.136
3,GUAUGAGCAGUAUAU [DMSMaPseq_invitro_SARS-CoV-2_Motif_451],-0.709
4,GUCAAAGUGAC [SHAPE_invivo_SARS-CoV-2_Motif_385],-0.434
5,GUCAAAGUGACUAUUGAC [SHAPE_invitro_SARS-CoV-2_Motif_373],-0.53
6,GUCACACCUUCGGGAACGUGGUUGAC,-0.0943
7,GUCAGUGAAACACAGGGAACAGAGAAACUGAC [IAV_invivo_PB2_1_Motif_24+IAV_invivo_PB2_1_Motif_24],-0.399
8,GUCCUAAAGUGAAGUAUUUAUACUUUAUUAAAGGAU [SHAPE_invivo_SARS-CoV-2_Motif_244],-1.19
9,GUCCUAUUACGGAU,-1.37
10,GUCGCUACAGGAUUGGCAACUAUAAAUUAAACACAGACCAUUCCAGUAGCAGUGAC [SHAPE_invitro_SARS-CoV-2_Motif_494],0.0101
11,GUCGUUGACAGGACACGAGUAACUCGUCUAUCUUCUGCAGGCUGC [SARS-CoV-2-Conserved-Structured-34_Interval-80-197_Motif_3],0.831
12,GUCUAAUCUCAAACCUUUUGAGAGAGAU,-1.19
13,GUCUAGCUGUCCACGAGUGCUUUGUUAAGCGUGUUGACUGGAC,-0.138
14,GUCUCCUACUAAAUUAAAUGAUCUCUGCUUUACUAAUGUCUAUGCAGAUUCAUUUGUAAUUAGAGGUGAU,-0.922
15,GUCUCGCACCCGCGAGAU [IAV_invivo_PB2_1_Motif_2+IAV_invivo_PB2_1_Motif_2],0.279
16,GUCUCUAUAGAAAUAGAGAU,-0.156
17,GUCUCUGAAGAAGUAGUGGAAAAUCCUACCAUACAGAAAGAC,0.289
18,GUCUGAUAAUGGACCCCAAAAUCAGCGAAAUGCACCCCGCAUUACGUUUGGUGGACCCUCAGAU,-0.521
19,GUCUGGGAUCAACGAGUCAGCGGAC [IAV_invivo_PB1_2_Motif_28+IAV_invivo_PB1_2_Motif_28],-0.256
20,GUCUGGUAGUCGGAC [IAV_invivo_NA_6_Motif_1+IAV_invivo_NA_6_Motif_1],-0.173
21,GUCUUACACCGUGCGGCACAGGCACUAGUACUGAUGUCGUAUACAGGGCUUUUGAC [DMSMaPseq_invitro_SARS-CoV-2_Motif_242],0.173
22,GUCUUUCCAGGGGC [IAV_invivo_NP_5_Motif_23+IAV_invivo_NP_5_Motif_23],-0.393
23,GUGAAACAUUUGUCAC [SHAPE_invivo_SARS-CoV-2_Motif_46],0.532

row,Sequence,pull-down binding Z-score
1,GUGAAGAAUCAU,0.379
2,GUGAAUUCAACAU [DMSMaPseq_invitro_SARS-CoV-2_Motif_308],-0.428
3,GUGAGAGAGAGCCGGAACCCAGGGAAUGCUGAGUUCGAAGAUCUCAC [IAV_invivo_NP_5_Motif_14+IAV_invivo_NP_5_Motif_14],0.687
4,GUGAUAGAGCCAUGCCUAACAUGCUUAGAAUUAUGGCCUCAC,0.179
5,GUGAUGAACUGAAGAUUAAUGCGGCUUGUAGAAAGGUUCAACACAUGGUUGUUAAAGCUGCAUUAUUAGCAGACAAAUUCCCAGUUCUUCAC,0.101
6,GUGCACUUGACCCUCUCUCAGAAACAAAGUGUAC [SHAPE_invivo_SARS-CoV-2_Motif_422],0.229
7,GUGCAGAAUGAAUUCUCGUAACUACAUAGCACAAGUAGAUGUAGUUAACUUUAAUCUCAC,-0.646
8,GUGCCACUCCAUGGCAC,0.324
9,GUGCCAGCACAAAAUGCUAUAAGCAC [IAV_invivo_PB1_2_Motif_3+IAV_invivo_PB1_2_Motif_3],-1.07
10,GUGCCAUCAAAUUGGAUGACAAAGAUCCAAAUUUCAAAGAUCAAGUCAUUUUGCUGAAUAAGCAUAUUGACGCAU,-0.411
11,GUGCCCAAAAUACGUCAGGAGUGC [IAV_invivo_HA_4_Motif_13+IAV_invivo_HA_4_Motif_13],0.0361
12,GUGCCUGGAAUAUUGGUGAACAGAAAUCAAUACUGAGUCCUCUUUAUGCAUUUGCAUCAGAGGCUGCUCGUGUUGUACGAUCAAUUUUCUCCCGCAC [SHAPE_invivo_SARS-CoV-2_Motif_37],-0.115
13,GUGCGGCACAGGCACUAGUACUGAUGUCGUAU [SHAPE_invitro_SARS-CoV-2_Motif_246],0.568
14,GUGCGUAUAAAGAUUGUACAAAUGUUAAGUGACACACUUAAAAAUCUCUCUGACAGAGUCGUAUUUGUCUUAUGGGCAC [DMSMaPseq_invitro_SARS-CoV-2_Multi_54_ComplexLevel_1],-0.833
15,GUGCUAAGCAC,-0.59
16,GUGCUAAUGACCCUGUGGGUUUUACAC [SHAPE_invivo_SARS-CoV-2_Motif_252],0.0247
17,GUGCUUGGGACAUUUGAUACCGCAC [IAV_invivo_PB2_1_Motif_30+IAV_invivo_PB2_1_Motif_30],-0.171
18,GUGGAUGGUUAUGUUCAC,-0.236
19,GUGGCACUGAGAAUUUGACUAAAGAAGGUGCCAC,0.595
20,GUGGCCCUGAUGGCUAC,-0.412
21,GUGGCUAAAUCUGAAUUUGACCGUGAUGCAGCCAU [DMSMaPseq_invitro_SARS-CoV-2_Motif_214],-0.504
22,GUGGGGUAUUCAUCACCCGC [IAV_invivo_HA_4_Motif_9+IAV_invivo_HA_4_Motif_9],1.62
23,GUGGUAGUUAUACUAAUGACAAAGCUUGCCCAUUGAUUGCUGC [DMSMaPseq_invitro_SARS-CoV-2_Motif_161],0.498
